Molecular target: the molecule itself
Test: negative-stain electron microscopy

B1: full-length zebrafish ASC, recombinant, His-NusA-GB1 tag cleaved off (natural protein, UniProt Q9I9N6 1-203, looked up)
chain: MAESFKEHLQEAFEDLGADNLRKFKSKLGDRRQEPRVTKSAIEKLKDEIDLADLMVGVFTSKDAVSVTVEILRAIKCNAVADDLLRNTGQSESKGALSDESKCASSKAVSKVAFSKVNFIDEHWKELIDRVNNVDPILDILRQKKVITNEDYCTIRNKETPQKKMRELLTGPITCAGNKGKEVLYDALRESNKFLMDDLEDAE
binding result: binds

From PMC6105367 (The FEBS journal, 2018)
